Patent US20130144035A1, “COMPOSITIONS AND METHODS FOR LEUKOCYTE-TARGETING MULTI-VALENT IMAGING PROBES” (priority 2010, published 2013)
Like-named read-outs stand apart in the source and are kept apart here. Square brackets hold non-standard residues; d marks the D form. Peptide text beside a SMILES is read from it. * marks the point of attachment. PEG12 = NCCOCCOCCOCCOCCOCCOCCOCCOCCOCCOCCOCCOCCC(=O)O; PEG4 = NCCOCCOCCOCCOCCC(=O)O; HYNIC = NNc1ccc(C(=O)*)cn1; X1 = O=C(/C=C/c1ccccc1)*

Assays:
[1] = mouse, in vivo; cited from earlier work
[2] = mouse, in vivo; cited from earlier work; remark: listed apart in the source
[3] = Partition coefficient (octanol/water); type: physicochemical; settings: average of three measurements
Experimental: Freshly HPLC purified cFLFLF-PEGn-KTKPPR-^99mTc 8 or 9 (˜350 kBq) in 500 μL of water was mixed with 500 μLof octanol in an Eppendorf microcentrifuge tube. The tube was sonicated for […] and then centrifuged at 4,000 rpm for […] (Fisher Scientific Marathon Micro-A). Aliquots (100 μL) of octanol and aqueous layers were carefully separated and radioactivity of samples were counted. Log P is derived as the log of the ratio of radioactivity in octonol to radioactivity in water. The measurement was repeated in triplicate and data presented is the average of three measurements.

[4] = test system: isolated human neutrophils (formyl peptide and tuftsin receptors); assay: Neutrophil binding, saturation assay; settings: for Kd: TNF-α treated human neutrophils, 25° C., 90 min, saturation assay
Experimental: Human tumor necrosis factor-α (TNF-α) was procured from Perpotech, and fMLF was purchased from Sigma. Aliquots of both samples were taken (TNF-α, 10 U/mL, and fMLF, 10 mM) and stored at −20° C. For every assay the solutions were thawed to ambient temperature and freshly diluted with […] (HA) buffer before use. Multiscreen high-throughput screening (HTS) with glass fiber filter (FC) 96-well plates, type C, with […] glass filters were purchased from Millipore. Filtration from 96-well plates was performed under vacuum on a Brandel filtration device. The membranes from each well were collected by punching with the Millipore Multiscreen punching instrument. The radioactivity from ^99mTc-bound ligand was measured with either Minaxi (Packard), Autogamma 5000 series (Packard), or Wallac 1420 Wizard (Perkin-Elmer) γ-counters. Radioactivity was measured for 1 min per sample and was not corrected for decay.
Human neutrophils were prepared from normal heparinized (10 U/mL) venous blood by a 1-step Ficoll-Hypaque separation procedure (15, 16), yielding approximately 98% neutrophils; greater than 95% viable as determined with trypan blue containing less than 50 pg/mL of endotoxin. After separation, neutrophils were washed with Hank's balanced salt solution with heparin (10 U/mL) 3 times. After the third wash, neutrophils were resuspended in HA buffer, which was Hank's balanced salt solution supplemented with 0.1% human albumin (Bayer Healthcare). Neutrophil experiments were completed in HA buffer.
Freshly isolated human neutrophils (4×10^6 cells/mL) were treated with TNF-α(10 U/mL, Peprotech) twenty minutes prior to binding studies and transferred to a 96 well plate (Multiscreen® HTS FC by Millipore, Billerica, Mass. 1.2 μm glass filter type C, 50.0 μL, 2.0×10^5 cells/well). […] The bounded radioactivity remaining on the membranes was measured in a gamma counter. Specific binding was calculated as the difference between total binding and nonspecific binding at the highest concentration. […]

[5] = test system: PMA-induced ear inflammation (neutrophil accumulation); assay: SPECT/CT imaging in mouse ear inflammation model (PMA); type: in vivo; settings: 27 hours after PMA challenge, 3 hours post injection
Experimental: A female FVB mouse, 5 month old, with left ear inflammatory lesion was used to preliminarily assess the ability of the cFLFLF-PEG12-TKPPR-^99mTc to detect inflammation as a result of neutrophils migration and accumulation. The animal model is similar to that described by Gross et al. (19). Topical application of PMA (2.5 μg in 20 μl DMSO) onto the left earlobe induces acute dermatitis, manifested by local swelling, erythema and infiltration of neutrophils (20, 21). The right ear served as control and received only DMSO (vehicle). The SPECT/CT imaging was correlated with myeloperoxidase (MPO) activity determined by non-invasive bioluminal-bioluminescence imaging (19).
Twenty-four hours after PMA challenge, 3.7 MBq […] of cFLFLF-PEG12-TKPPR-^99mTc in 200 μl of saline was administered via tail vein. […] All SPECT images were corrected for radioactivity decay but not for gamma ray attenuation.
Co-registration of SPECT and CT images was performed using ASIPRO software (Siemens Medical Solutions USA, Inc., Knoxyille, Tenn.) and a transformation matrix previously obtained with a dual modality phantom. To characterize the accumulation of the tracer in the ears, volume-of-interest (VOI) analysis was performed to identify the number of detected counts originating in the ears. […] This activity was expressed as percentage of the injected dose per mouse body mass (% ID/g).

Blood clearance = type: in vivo; settings: mouse, whole blood, intravenous, control mice (n=3), tail vein injection, mono-exponential clearance; read-out: elimination half-life for blood clearance (T1/2)
Experimental: Blood kinetics of cFLFLF-PEG12-TKPPR-^99mTc was studied in 3 control (non-inflamed) mice. Approximately 50 μL of blood from the contralateral tail vein were collected in capillary tubes at 15, 30, 45, 60, 120, and 180, 360 min after tracer injection (0.37-0.74 MBq). The capillary tubes were placed in a vial that was weighed beforehand and afterward. Activity in each blood sample was measured in a radioisotope calibrated well counter (CRC-15W, Capintec, Inc, NJ), decay corrected back to the time of tracer injection, normalized for injected dose and animal body weight, and expressed as % ID/g of blood.

Serum stability = type: in vitro ADME; settings: fetal bovine serum
Experimental: Fifty microcuries of the cFLFLF-PEG12-TKPPR-^99mTc was added in to 100 μL of fetal bovine serum (Invitrogen, Grand Island, N.Y.). After incubation at 37° C. for 1, 3, and 6 hrs, aliquots of the mixture was filtered through a […] micro spin filter. The filtrates were analyzed by reverse-phase HPLC with a Bioscan Flow Count Radio-HPLC detector. All of newly formed γ-peaks besides the original cFLFLF-PEG12-TKPPR-^99mTc peak would be considered as degraded products.

Biodistribution = type: in vivo; settings: normal mice, 18 hours post injection
Experimental: Body distribution of radioactivity was determined in control (n=3) mice 18 h after injection of tracer. After a single blood sample had been taken from the tail vein, mice were euthanized by deep halothane anesthesia. The organs and tissues (ear, heart, lungs, muscle, bone, liver, kidney, spleen, small intestine, and stomach) were collected, rinsed with PBS, wiped with filter paper and weighed in a pre-weighed vial. The radioactivity of each sample was measured in a γ-well counter and decay-corrected back to the time of tracer injection. Biodistribution values are expressed as a percentage of the injected dose (% ID) and normalized by body and organ/tissue mass.

Row | Compound | blood retaining [1] | liver uptake [1] | circulation time (T1/2) [2] | logP [3] | Kd [4] | fold less potent than compound 9 ([4]; binding to human neutrophils, ratio of Kd) | accumulation of the tracer in the infected ear (left) vs. control ear [5] | half-life (Blood clearance) | stable in serum (Serum stability; 37° C.) | fragments of 99mTc labeled peptide by HPLC analysis of serum samples (Serum stability; 37° C., 1, 3, and 6 hours) | blood retaining (Biodistribution) | liver uptake (Biodistribution)
1 | cFLFLFK-PEG-^64Cu | 0.2 % ID | 1.5 % ID | 0.917 h |  |  |  |  |  |  |  |  | 
2 | CC(C)C[C@@H](NC(=O)[C@H](Cc1ccccc1)NC(=O)[C@@H](CC(C)C)NC(=O)[C@H](Cc1ccccc1)NC(=O)/C=C/c1ccccc1)C(=O)N[C@@H](Cc1ccccc1)C(=O)NCCOCCOCCOCCOCCC(=O)N[C@@H](CCCCNC(=O)c1ccc(NN)nc1)C(=O)N[C@H](C(=O)N[C@@H](CCCCN)C(=O)N1CCC[C@H]1C(=O)N1CCC[C@H]1C(=O)N[C@@H](CCCNC(=N)N)C(=O)O)[C@@H](C)O [ligand 8, cFLFLF-PEG4-TKPPR-^99mTc, metal not drawn] (X1-F[dL]F[dL]F[PEG4]K(HYNIC)TKPPR-OH) |  |  |  | -0.77 | 0.0478 µM | roughly 3 fold |  |  |  |  |  | 
3 | CC(C)C[C@@H](NC(=O)[C@H](Cc1ccccc1)NC(=O)[C@@H](CC(C)C)NC(=O)[C@H](Cc1ccccc1)NC(=O)/C=C/c1ccccc1)C(=O)N[C@@H](Cc1ccccc1)C(=O)NCCOCCOCCOCCOCCOCCOCCOCCOCCOCCOCCOCCOCCC(=O)N[C@@H](CCCCNC(=O)c1ccc(NN)nc1)C(=O)N[C@H](C(=O)N[C@@H](CCCCN)C(=O)N1CCC[C@H]1C(=O)N1CCC[C@H]1C(=O)N[C@@H](CCCNC(=N)N)C(=O)O)[C@@H](C)O [ligand 9, cFLFLF-PEG12-TKPPR-^99mTc, metal not drawn] (X1-F[dL]F[dL]F[PEG12]K(HYNIC)TKPPR-OH) |  |  |  | -0.89 | 0.0151 µM |  | about 3.15 folds | ~1.4 h | at least 6 hours | no appreciable fragments | 1.2 % ID | 5.3 % ID
